US20160368974A1 (UMC UTRECHT HOLDING B V, published 2016)
Ends that are not written are not given here.

Experiments:
Test in all cases: PEPSCAN-based ELISA, peptide linked to card
peptide TYSSAEDGIHELFP = biological target: T1, peptide TYSSAEDGIHELFP (also: covalently linked to a PEPSCAN card)
T1 construct: also called replaced amino acid P (first)
T1 peptide: TYSSAEDGIHELFP
Protocol: (§1) The binding of antibody to each peptide was tested in a PEPSCAN-based ELISA. The 455-well credit card format polypropylene cars containing the covalently linked peptides were incubated with primary antibody solution consisting of 0.05 micrograms antibody/mL diluted in blocking solution, i.e., 4% horse serum, 5% ovalbumin (w/v) in PBS/0.1% Tween. After washing, the peptides were incubated with a 1/1000 dilution of antibody peroxidase conjugate for one hour at 25° C. After washing, the peroxidase substrate 2,2′-azino-di-3-ehtylbenzthiazoline sulfonate (ABTS) and 2 microliters of 3 percent H₂O₂ were added. After one hour, the colour development was measured. The colour development was quantified with a charge coupled device (CCD)-camera and an image processing system (as firstly described in Slootstra et al. Mol Divers. 1996 February; 1(2):87-96).
(§2) Peptide synthesis, screening assays and data calculation for alanine-scan of fibronectin-EDA epitope are performed as described in Example 1. Peptides based on […] were synthesized wherein in each peptide one amino acid is replaced by an alanine. The peptides were tested for binding by antibodies 27A12.70, 29E7.35, 17G8.72 and 42H11.51.

peptide TYSSPEAGIHELFP = biological target: T2, peptide TYSSPEAGIHELFP (also: covalently linked to a PEPSCAN card)
T2 construct: also called replaced amino acid D
T2 peptide: TYSSPEAGIHELFP
Protocol: as §1, §2

peptide TYSSPEDGIHELFP = biological target: T3, peptide TYSSPEDGIHELFP (also: covalently linked to a PEPSCAN card)
T3 construct: Synthetic peptide covalently linked to a PEPSCAN card; parent peptide of the alanine scan; also called replaced amino acid: none
T3 peptide: TYSSPEDGIHELFP
Protocol: as §1, §2

peptide TYSSPEDGIAELFP = biological target: T4, peptide TYSSPEDGIAELFP (also: covalently linked to a PEPSCAN card)
T4 construct: also called replaced amino acid H
T4 peptide: TYSSPEDGIAELFP
Protocol: as §1, §2

peptide TYSSPADGIHELFP = biological target: T5, peptide TYSSPADGIHELFP (also: covalently linked to a PEPSCAN card)
T5 construct: also called replaced amino acid E (first)
T5 peptide: TYSSPADGIHELFP
Protocol: as §1, §2

peptide TYSAPEDGIHELFP = biological target: T6, peptide TYSAPEDGIHELFP (also: covalently linked to a PEPSCAN card)
T6 construct: also called replaced amino acid S (second)
T6 peptide: TYSAPEDGIHELFP
Protocol: as §1, §2

peptide TYSSPEDGIHALFP = biological target: T7, peptide TYSSPEDGIHALFP (also: covalently linked to a PEPSCAN card)
T7 construct: also called replaced amino acid E (second)
T7 peptide: TYSSPEDGIHALFP
Protocol: as §1, §2

peptide TYSSPEDGIHEAFP = biological target: T8, peptide TYSSPEDGIHEAFP (also: covalently linked to a PEPSCAN card)
T8 construct: also called replaced amino acid L
T8 peptide: TYSSPEDGIHEAFP
Protocol: as §1, §2

peptide TYASPEDGIHELFP = biological target: T9, peptide TYASPEDGIHELFP (also: covalently linked to a PEPSCAN card)
T9 construct: also called replaced amino acid S (first)
T9 peptide: TYASPEDGIHELFP
Protocol: as §1, §2

peptide AYSSPEDGIHELFP = biological target: T10, peptide AYSSPEDGIHELFP (also: covalently linked to a PEPSCAN card)
T10 construct: also called replaced amino acid T
T10 peptide: AYSSPEDGIHELFP
Protocol: as §1, §2

peptide TASSPEDGIHELFP = biological target: T11, peptide TASSPEDGIHELFP (also: covalently linked to a PEPSCAN card)
T11 construct: also called replaced amino acid Y
T11 peptide: TASSPEDGIHELFP
Protocol: as §1, §2

peptide TYSSPEDGIHELFA = biological target: T12, peptide TYSSPEDGIHELFA (also: covalently linked to a PEPSCAN card)
T12 construct: also called replaced amino acid P (second)
T12 peptide: TYSSPEDGIHELFA
Protocol: as §1, §2

[1] = biological target: T13, peptide …
T13 sequence (peptide): TYSSPEDAIHELFP

[2] = biological target: T14, peptide …; remark: listed apart in the source
T14 sequence (peptide): TYSSPEDGAHELFP

[3] = biological target: T15, peptide …; remark: listed apart in the source
T15 sequence (peptide): TYSSPEDGIHELAP

[4] = biological target: T16, peptide …; remark: listed apart in the source
T16 sequence (peptide): TYSSPEDGIHEAFP

B1: antibody 17G8.72 (antibody, V domains shown)
VH: DVQLQESGPDLVKPSQSLSLTCTVTGYSIASGYSWHWIRQFPGNKLEWMGYIHFSGSANYNPSLKSRISITRDTSKNQFFLQLNSVTTEDTATYYCASEARGYFDYWGQGTTLTVSS
VL: DVLMTQTPLSLPVSLGDQASISCRSSQSIVRSNGNTYLTWYLQKPGQSPKLLIYKVSNRFSGVPDRFSGSGSGTDFTLKISRVEAEDLGVYFCFQGSHVPPTFGSGTKLEIKR
notes: Monoclonal antibody against the EDA domain of fibronectin-EDA; also called 17G8.7VL
Peptide TYSSAEDGIHELFP
  Antibody binding (arbitrary optical density units): 2090 arbitrary optical density units
Peptide TYSSPEAGIHELFP
  Antibody binding (arbitrary optical density units): 2650 arbitrary optical density units
Peptide TYSSPEDGIHELFP
  Antibody binding (arbitrary optical density units): 2090 arbitrary optical density units
Peptide TYSSPEDGIAELFP
  Antibody binding (arbitrary optical density units): 2560 arbitrary optical density units
Peptide TYSSPADGIHELFP
  Antibody binding (arbitrary optical density units): 2480 arbitrary optical density units
Peptide TYSAPEDGIHELFP
  Antibody binding (arbitrary optical density units): 2100 arbitrary optical density units
Peptide TYSSPEDGIHALFP
  Antibody binding (arbitrary optical density units): 2100 arbitrary optical density units
Peptide TYSSPEDGIHEAFP
  Antibody binding (arbitrary optical density units): 1550 arbitrary optical density units
Peptide TYASPEDGIHELFP
  Antibody binding (arbitrary optical density units): 2500 arbitrary optical density units
Peptide AYSSPEDGIHELFP
  Antibody binding (arbitrary optical density units): 2150 arbitrary optical density units
Peptide TASSPEDGIHELFP
  Antibody binding (arbitrary optical density units): 2670 arbitrary optical density units
Peptide TYSSPEDGIHELFA
  Antibody binding (arbitrary optical density units): 2160 arbitrary optical density units
[1]
  Antibody binding (arbitrary optical density units) (arbitrary optical density units): 89
[2]
  Antibody binding (arbitrary optical density units) (arbitrary optical density units): 66
[3]
  Antibody binding (arbitrary optical density units) (arbitrary optical density units): 106

B2: antibody 27A12.70 (antibody, V domains shown)
VH: DVQLQESGPDLVKPSQSLSLTCTVTGYSITSGYSWHWIRQFPGNKLEWMGYIHYSGIANYNPSLKSRISITRDTSKNHFFLQLNSVTTEDTATYYCATEKTGFFDYWGQGTTLTVSS
VL: DVVMTQTPLSLPVSLGDQASISCRSSQSLVHSNGNTYLHWYLQKPGQSPKLLIYKVSNRFSGVPDRFSGSGSGTDFTLKISRVEAEDLGVYFCSQSAHVPPTFGGGTKLEIKR
notes: Murine monoclonal antibody against the EDA domain of fibronectin-EDA
Peptide TYSSAEDGIHELFP
  Antibody binding (arbitrary optical density units): 2710 arbitrary optical density units
Peptide TYSSPEAGIHELFP
  Antibody binding (arbitrary optical density units): 2750 arbitrary optical density units
Peptide TYSSPEDGIHELFP
  Antibody binding (arbitrary optical density units): 2680 arbitrary optical density units
Peptide TYSSPEDGIAELFP
  Antibody binding (arbitrary optical density units): 2400 arbitrary optical density units
Peptide TYSSPADGIHELFP
  Antibody binding (arbitrary optical density units): 2690 arbitrary optical density units
Peptide TYSAPEDGIHELFP
  Antibody binding (arbitrary optical density units): 2680 arbitrary optical density units
Peptide TYSSPEDGIHALFP
  Antibody binding (arbitrary optical density units): 2200 arbitrary optical density units
Peptide TYSSPEDGIHEAFP
  Antibody binding (arbitrary optical density units): 1780 arbitrary optical density units
Peptide TYASPEDGIHELFP
  Antibody binding (arbitrary optical density units): 2720 arbitrary optical density units
Peptide AYSSPEDGIHELFP
  Antibody binding (arbitrary optical density units): 2710 arbitrary optical density units
Peptide TASSPEDGIHELFP
  Antibody binding (arbitrary optical density units): 2790 arbitrary optical density units
Peptide TYSSPEDGIHELFA
  Antibody binding (arbitrary optical density units): 2600 arbitrary optical density units
[1]
  Antibody binding (arbitrary optical density units) (arbitrary optical density units): 122
[2]
  Antibody binding (arbitrary optical density units) (arbitrary optical density units): 91
[3]
  Antibody binding (arbitrary optical density units) (arbitrary optical density units): 249

B3: antibody 29E7.35 (antibody, V domains shown)
VH: AVQLQESGPDLVKPSHSLSLTCTVTGYSITSGYSWHWIRQFPGNKLEWMGYIHYSGSANYNPSLKSRFSITRDTSKNQFFLQLNSVTTEDTATYYCATEKTGFFDYWGQGTTLTVSS
VL: DVVMTQTPLSLPVSLGDQASISCRSSQSLVHSNGNTYLHWYLQKPGQSPKLLIYKVSNRFSGVPDRFSGSGSGTDFTLKISRVEAEDLGVYFCSQSAHVPPTFGGGTKLEIKR
notes: Monoclonal antibody against the EDA domain of fibronectin-EDA
Peptide TYSSAEDGIHELFP
  Antibody binding (arbitrary optical density units): 2660 arbitrary optical density units
Peptide TYSSPEAGIHELFP
  Antibody binding (arbitrary optical density units): 2720 arbitrary optical density units
Peptide TYSSPEDGIHELFP
  Antibody binding (arbitrary optical density units): 2750 arbitrary optical density units
Peptide TYSSPEDGIAELFP
  Antibody binding (arbitrary optical density units): 1800 arbitrary optical density units
Peptide TYSSPADGIHELFP
  Antibody binding (arbitrary optical density units): 2630 arbitrary optical density units
Peptide TYSAPEDGIHELFP
  Antibody binding (arbitrary optical density units): 2630 arbitrary optical density units
Peptide TYSSPEDGIHALFP
  Antibody binding (arbitrary optical density units): 302 arbitrary optical density units
Peptide TYASPEDGIHELFP
  Antibody binding (arbitrary optical density units): 2740 arbitrary optical density units
Peptide AYSSPEDGIHELFP
  Antibody binding (arbitrary optical density units): 2780 arbitrary optical density units
Peptide TASSPEDGIHELFP
  Antibody binding (arbitrary optical density units): 2840 arbitrary optical density units
Peptide TYSSPEDGIHELFA
  Antibody binding (arbitrary optical density units): 2600 arbitrary optical density units
[4]
  Antibody binding (arbitrary optical density units) (arbitrary optical density units): 194
[1]
  Antibody binding (arbitrary optical density units) (arbitrary optical density units): 81
[2]
  Antibody binding (arbitrary optical density units) (arbitrary optical density units): 74
[3]
  Antibody binding (arbitrary optical density units) (arbitrary optical density units): 124
